Test results reported in patent US20120039865A1 (YALE UNIVERSITY, published 2012).

T1: mouse SorCS1 (GenBank Accession No. BC007486) expressed in COS-7 cells (mouse, UniProt Q9JLC4 34-1167)
T1 construct: whole, on cells
T1 sequence (looked up): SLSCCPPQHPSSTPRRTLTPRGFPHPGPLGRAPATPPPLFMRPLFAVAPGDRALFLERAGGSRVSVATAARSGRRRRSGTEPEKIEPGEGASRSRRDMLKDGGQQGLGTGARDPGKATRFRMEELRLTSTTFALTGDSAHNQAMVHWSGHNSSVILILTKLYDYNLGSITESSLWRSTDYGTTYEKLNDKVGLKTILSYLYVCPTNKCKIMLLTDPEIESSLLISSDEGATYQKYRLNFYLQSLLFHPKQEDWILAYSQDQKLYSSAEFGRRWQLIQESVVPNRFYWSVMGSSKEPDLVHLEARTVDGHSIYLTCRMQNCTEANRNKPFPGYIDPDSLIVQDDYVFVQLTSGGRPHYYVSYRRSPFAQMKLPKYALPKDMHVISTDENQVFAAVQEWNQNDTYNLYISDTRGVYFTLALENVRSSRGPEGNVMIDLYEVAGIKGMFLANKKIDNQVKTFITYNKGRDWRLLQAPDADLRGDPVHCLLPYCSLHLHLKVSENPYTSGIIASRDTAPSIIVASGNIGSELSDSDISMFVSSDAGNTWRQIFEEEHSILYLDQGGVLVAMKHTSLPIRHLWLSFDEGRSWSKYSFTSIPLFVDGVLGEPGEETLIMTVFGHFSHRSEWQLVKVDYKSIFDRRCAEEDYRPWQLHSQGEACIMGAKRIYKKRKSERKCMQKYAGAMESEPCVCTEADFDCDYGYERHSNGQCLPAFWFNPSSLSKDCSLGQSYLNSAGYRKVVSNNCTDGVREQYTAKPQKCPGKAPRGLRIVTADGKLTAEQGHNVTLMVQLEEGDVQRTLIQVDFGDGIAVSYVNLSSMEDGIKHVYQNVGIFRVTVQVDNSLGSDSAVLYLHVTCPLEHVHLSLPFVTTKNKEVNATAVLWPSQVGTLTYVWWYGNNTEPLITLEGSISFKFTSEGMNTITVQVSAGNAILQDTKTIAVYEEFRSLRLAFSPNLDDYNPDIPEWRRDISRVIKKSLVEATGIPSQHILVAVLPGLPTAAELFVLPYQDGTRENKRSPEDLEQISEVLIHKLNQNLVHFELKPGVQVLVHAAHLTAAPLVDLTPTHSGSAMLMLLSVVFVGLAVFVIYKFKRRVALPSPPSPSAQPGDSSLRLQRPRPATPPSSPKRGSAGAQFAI

T2: mouse sortilin-1 (Sort1; GenBank Accession No. NM 019972) expressed in COS-7 cells (mouse, UniProt Q6PHU5 74-825)
T2 construct: cDNA clone from a mouse library, transfected into COS-7 cells; also called PGRN-R; PGRN receptor
T2 sequence: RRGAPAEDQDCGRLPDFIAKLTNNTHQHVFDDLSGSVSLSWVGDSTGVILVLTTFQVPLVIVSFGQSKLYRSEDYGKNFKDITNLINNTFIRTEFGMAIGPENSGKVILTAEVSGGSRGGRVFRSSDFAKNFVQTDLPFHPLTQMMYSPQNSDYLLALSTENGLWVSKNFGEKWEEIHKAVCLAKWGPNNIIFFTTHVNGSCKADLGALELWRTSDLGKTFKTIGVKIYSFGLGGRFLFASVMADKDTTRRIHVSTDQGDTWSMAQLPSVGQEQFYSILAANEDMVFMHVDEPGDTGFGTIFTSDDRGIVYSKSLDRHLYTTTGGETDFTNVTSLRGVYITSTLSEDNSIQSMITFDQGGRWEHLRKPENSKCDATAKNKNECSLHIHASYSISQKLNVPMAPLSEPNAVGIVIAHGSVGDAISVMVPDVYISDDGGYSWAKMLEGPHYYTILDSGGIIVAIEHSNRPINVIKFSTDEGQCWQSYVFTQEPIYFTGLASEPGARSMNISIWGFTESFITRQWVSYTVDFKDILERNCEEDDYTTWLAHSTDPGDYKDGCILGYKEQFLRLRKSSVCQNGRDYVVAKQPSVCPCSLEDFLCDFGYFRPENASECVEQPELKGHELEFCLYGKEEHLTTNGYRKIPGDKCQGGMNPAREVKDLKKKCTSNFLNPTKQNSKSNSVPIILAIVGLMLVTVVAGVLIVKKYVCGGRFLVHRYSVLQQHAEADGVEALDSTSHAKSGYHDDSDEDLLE

T3: rat sortilin (Sort1) on E18 rat cortical neurons (rat, UniProt O54861 74-825)
T3 construct: Native receptor on cultured rat neurons
T3 sequence: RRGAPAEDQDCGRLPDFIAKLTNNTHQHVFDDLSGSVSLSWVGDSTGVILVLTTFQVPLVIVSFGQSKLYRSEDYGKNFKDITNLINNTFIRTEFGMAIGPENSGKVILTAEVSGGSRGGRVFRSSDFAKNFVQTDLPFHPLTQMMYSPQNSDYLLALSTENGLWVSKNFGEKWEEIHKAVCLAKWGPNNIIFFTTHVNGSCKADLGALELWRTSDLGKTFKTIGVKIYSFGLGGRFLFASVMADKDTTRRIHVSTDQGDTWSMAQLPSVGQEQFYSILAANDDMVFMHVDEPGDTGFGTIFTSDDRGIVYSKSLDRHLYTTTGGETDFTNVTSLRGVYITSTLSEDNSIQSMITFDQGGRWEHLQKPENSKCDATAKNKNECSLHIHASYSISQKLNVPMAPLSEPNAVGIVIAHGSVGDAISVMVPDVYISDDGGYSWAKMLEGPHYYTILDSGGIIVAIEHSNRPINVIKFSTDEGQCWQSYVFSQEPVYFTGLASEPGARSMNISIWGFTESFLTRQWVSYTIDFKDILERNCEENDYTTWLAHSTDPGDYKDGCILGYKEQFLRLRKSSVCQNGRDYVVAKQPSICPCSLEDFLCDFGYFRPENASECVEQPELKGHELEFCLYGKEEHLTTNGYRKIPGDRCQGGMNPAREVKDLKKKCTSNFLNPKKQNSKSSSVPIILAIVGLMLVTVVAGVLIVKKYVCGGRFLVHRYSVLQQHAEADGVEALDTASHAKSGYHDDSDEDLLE

B1: AP-PGRN (alkaline phosphatase fused to human progranulin, huPGRN, GenBank Accession No. BC010577) (ligand)
chain: TRCPDGQFCPVACCLDPGGASYSCCRPLLDKWPTTLSRHLGGPCQVDAHCSAGHSCIFTVSGTSSCCPFPEAVACGDGHHCCPRGFHCSADGRSCFQRSGNNSVGAIQCPDSQFECPDFSTCCVMVDGSWGCCPMPQASCCEDRVHCCPHGAFCDLVHTRCITPTGTHPLAKKLPAQRTNRAVALSSSVMCPDARSRCPDGSTCCELPSGKYGCCPMPNATCCSDHLHCCPQDTVCDLIQSKCLSKENATTDLLTKLPAHTVGDVKCDMEVSCPDGYTCCRLQSGAWGCCPFTQAVCCEDHIHCCPAGFTCDTQKGTCEQGPHQVPWMEKAPAHLSLPDPQALKRDVPCDNVSSCPSSDTCCQLTSGEWGCCPIPEAVCCSDHQHCCPQGYTCVAEGQCQRGSEIVAGLEKMPARRASLSHPRDIGCDQHTSCPVGQTCCPSLGGSWACCQLPHAVCCEDRQHCCPAGYTCNVKARSCEKEVVSAQPATFLARSPHVGVKDVECGEGHFCHDNQTCCRDNRQGWACCPYRQGVCCADRRHCCPAGFRCAARGTKCLRREAPRWDAPLRDPALRQLL
notes: Made in HEK293T cells from pAPtag-5; also called AP-PRGN; AP tagged ligand; not shown: alkaline phosphatase (AP) tag of expression vector pAPtag-5
B2: alkaline-phosphatase (AP) alone (enzyme, UniProt P05187 23-511, looked up)
chain: IIPVEEENPDFWNREAAEALGAAKKLQPAQTAAKNLIIFLGDGMGVSTVTAARILKGQKKDKLGPEIPLAMDRFPYVALSKTYNVDKHVPDSGATATAYLCGVKGNFQTIGLSAAARFNQCNTTRGNEVISVMNRAKKAGKSVGVVTTTRVQHASPAGTYAHTVNRNWYSDADVPASARQEGCQDIATQLISNMDIDVILGGGRKYMFRMGTPDPEYPDDYSQGGTRLDGKNLVQEWLAKRQGARYVWNRTELMQASLDPSVTHLMGLFEPGDMKYEIHRDSTLDPSLMEMTEAALRLLSRNPRGFFLFVEGGRIDHGHHESRAYRALTETIMFDDAIERAGQLTSEEDTLSLVTADHSHVFSFGGYPLRGSSIFGLAPGKARDRKAYTVLLYGNGPGYVLKDGARPDVTESESGSPEYRQQSAVPLDEETHAGEDVAVFARGPQAHLVHGVQEQTFIAHVMAFAACLEPYTACDLAPPAGTTDAAHPG
notes: Control for the AP tag

Columns and labels:
[1] = molecular target: T4, human SorLA (GenBank Accession No. U60975) expressed in COS-7 cells (human, UniProt Q92673 82-2214); assay: AP staining of transfected COS-7 cells
T4 construct: whole, on cells
T4 sequence (Q92673 82-2214, one chain of several): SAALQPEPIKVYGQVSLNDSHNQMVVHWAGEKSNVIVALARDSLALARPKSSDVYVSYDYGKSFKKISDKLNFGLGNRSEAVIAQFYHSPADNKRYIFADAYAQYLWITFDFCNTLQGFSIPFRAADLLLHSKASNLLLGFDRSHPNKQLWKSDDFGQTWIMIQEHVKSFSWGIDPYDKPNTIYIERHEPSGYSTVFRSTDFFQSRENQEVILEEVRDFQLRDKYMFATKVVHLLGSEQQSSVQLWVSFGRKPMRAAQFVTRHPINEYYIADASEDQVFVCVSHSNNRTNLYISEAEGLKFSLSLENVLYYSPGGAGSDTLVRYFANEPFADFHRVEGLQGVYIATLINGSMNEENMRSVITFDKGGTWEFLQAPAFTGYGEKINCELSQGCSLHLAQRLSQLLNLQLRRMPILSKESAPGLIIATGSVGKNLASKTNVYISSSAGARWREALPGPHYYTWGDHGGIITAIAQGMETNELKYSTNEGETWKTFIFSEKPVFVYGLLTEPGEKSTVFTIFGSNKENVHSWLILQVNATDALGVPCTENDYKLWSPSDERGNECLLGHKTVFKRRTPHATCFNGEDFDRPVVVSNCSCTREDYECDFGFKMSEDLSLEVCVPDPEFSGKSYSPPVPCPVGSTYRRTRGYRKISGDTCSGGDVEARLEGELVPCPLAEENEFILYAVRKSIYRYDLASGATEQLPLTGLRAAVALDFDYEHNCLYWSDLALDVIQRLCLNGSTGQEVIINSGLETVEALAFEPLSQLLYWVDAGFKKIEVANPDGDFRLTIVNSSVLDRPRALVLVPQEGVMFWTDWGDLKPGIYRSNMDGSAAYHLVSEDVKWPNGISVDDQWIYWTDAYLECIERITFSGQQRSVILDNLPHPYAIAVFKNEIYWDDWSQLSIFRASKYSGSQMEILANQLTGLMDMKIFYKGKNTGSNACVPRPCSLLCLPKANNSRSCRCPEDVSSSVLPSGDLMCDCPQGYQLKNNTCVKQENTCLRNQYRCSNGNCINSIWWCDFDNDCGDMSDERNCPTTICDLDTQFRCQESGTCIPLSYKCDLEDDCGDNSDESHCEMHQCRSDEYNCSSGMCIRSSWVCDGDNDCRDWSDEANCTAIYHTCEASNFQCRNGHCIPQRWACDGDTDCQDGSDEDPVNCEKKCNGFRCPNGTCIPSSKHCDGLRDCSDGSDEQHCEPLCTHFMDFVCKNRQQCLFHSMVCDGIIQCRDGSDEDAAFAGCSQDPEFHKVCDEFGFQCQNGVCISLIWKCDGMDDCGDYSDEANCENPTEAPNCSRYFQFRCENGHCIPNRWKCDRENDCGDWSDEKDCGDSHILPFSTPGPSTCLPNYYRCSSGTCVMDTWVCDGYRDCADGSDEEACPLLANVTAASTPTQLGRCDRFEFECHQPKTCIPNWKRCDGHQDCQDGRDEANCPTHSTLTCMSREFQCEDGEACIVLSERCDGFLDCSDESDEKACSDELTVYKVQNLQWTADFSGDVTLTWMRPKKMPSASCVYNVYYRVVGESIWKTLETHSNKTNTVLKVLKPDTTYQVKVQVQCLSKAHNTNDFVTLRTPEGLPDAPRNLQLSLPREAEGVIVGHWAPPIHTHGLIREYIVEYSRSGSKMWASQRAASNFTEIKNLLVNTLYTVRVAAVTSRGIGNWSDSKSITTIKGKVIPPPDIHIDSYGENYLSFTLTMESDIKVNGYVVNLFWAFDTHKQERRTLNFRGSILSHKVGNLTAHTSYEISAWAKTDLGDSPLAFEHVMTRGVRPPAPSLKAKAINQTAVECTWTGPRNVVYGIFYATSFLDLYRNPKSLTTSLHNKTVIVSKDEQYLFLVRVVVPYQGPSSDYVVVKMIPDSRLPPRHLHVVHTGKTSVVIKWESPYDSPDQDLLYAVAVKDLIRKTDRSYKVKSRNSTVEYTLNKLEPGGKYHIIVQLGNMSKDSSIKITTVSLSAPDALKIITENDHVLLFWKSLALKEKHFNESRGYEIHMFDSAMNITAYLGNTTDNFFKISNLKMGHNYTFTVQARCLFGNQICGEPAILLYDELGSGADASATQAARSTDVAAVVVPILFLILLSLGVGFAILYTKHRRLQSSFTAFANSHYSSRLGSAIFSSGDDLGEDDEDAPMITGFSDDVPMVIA

[2] = molecular target: T1, mouse SorCS1 (GenBank Accession No. …); assay: AP staining of transfected COS-7 cells
[3] = molecular target: T2, mouse sortilin-1 (Sort1; GenBank …); assay: saturation binding of AP-PGRN to Sort1-transfected COS-7 cells, bound AP activity (OD); Sort1-transfected COS-7 cells, FIG. 2B
Description: (§1) FIG. 2B is a graph depicting the saturation analysis of binding of AP-PGRN to COS-7 cells transfected with the PRGN-R, sortilin. The binding of AP-PGRN, measured by the optical density (OD units) of AP ligand bound, was determined as a function of ligand concentration (nM).
(§2) To determine the molecular nature of the neuronal binding site of PGRN, expression cloning experiments utilizing AP-PGRN as a tagged ligand were conducted. COS-7 (ATCC No. CRL-1651) cells were transfected with expression vectors containing mouse cDNAs using FUGENE® 6 according to manufacturer's specifications (Roche). An arrayed adult mouse brain cDNA library (OriGene) of 225,000 clones was screened in pools of 5,000 at a time, as well as a library consisting of 352 individual preparations of cDNAs encoding transmembrane proteins (GFC-transfection array panel, OriGene). […] In both cases, unlabeled 100 nM PGRN displaced binding (FIG. 2A, lower-right panel, and FIG. 3A, right panel).

[4] = molecular target: T2, mouse sortilin-1 (Sort1; GenBank …); assay: saturation binding of AP-tagged ligand to COS-7 cells transfected with sortilin (PGRN-R), bound AP read as optical density of the reaction product
Description: as §1, §2

[5] = molecular target: T3, rat sortilin (Sort1) on E18 rat …; assay: saturation binding of AP-PGRN to cultured cortical neurons (FIG. 1D); neuronal PGRN binding sites, identified by the filing as Sort1; cultured cortical neurons (FIG. 1D), species not stated
[6] = molecular target: T2, mouse sortilin-1 (Sort1; GenBank …); assay: AP staining of transfected COS-7 cells
[7] = molecular target: T3, rat sortilin (Sort1) on E18 rat …; assay: AP staining of cultured E18 rat cortical neurons (the neuronal PGRN binding site is identified by the filing as Sort1)
Description: Rat (Sprague-Dawley) cortical neurons were isolated from E18 embryos and cultured in vitro for 3-21 days. Cultures were maintained in Neurobasal-A medium supplemented with B27, GLUTAMAX™ (2 mM), sodium pyruvate (1 mM), penicillin, and streptomycin. The binding of 10 nM AP-PGRN or 10 nM AP was detected as a dark reaction product produced by alkaline phosphatase (AP). Binding was measured as follows. The AP tagged ligand (in NBA) was incubated with the cortical neurons for 1 hr at 4° C., washed three times with HBH buffer, fixed with formaldehyde, and after washing again with HBH the neurons were incubated in a 67° C. oven to inactivate the endogenous AP. The tagged AP was then visualized using AP substrate 5-bromo-4-chloro-3-indolyl phosphate/nitro blue tetrazolium, which results in a dark precipitate. […] The addition of 100 nM Flag-PGRN displaced 10 nM AP-PGRN (FIG. 1C, middle panel).

Binder	binding result [1]	binding result [2]	Kd [3] [nM]	EC50 (read off the curve) [4] [nM]	Kd [5] [nM]	binding result [6]	binding result [7]
B1	no binding (tested: 120 nM)	no binding (tested: 120 nM)	6	~3	~20		
B2						no binding (tested: 20 nM)	no binding (tested: 10 nM)
